Source: patent publication US6903203B2, “Monoclonal antibody to CEA, conjugates comprising said antibody and their therapeutic use” (AstraZeneca UK Ltd., priority 1996, dated 2005)

B1: 806.077 antibody: novel murine anti-CEA monoclonal antibody from hybridoma 806.077, ECACC deposit no. 96022936 (antibody, V domains shown)
VH: EVQLQQSGAELVRSGASVKLSCTASGFNIKDNYMHWVKQRPEQGLEWIAWIDPENGDTEYAPKFRGKATLTADSSSNTAYLHLSSLTSEDTAVYYCHVLIYAGYLAMDYWGQGTSVAVSS
VL: DIELTQSPAIMSASPGEKVTITCSASSSVTYMHWFQQKPGTSPKLWIYSTSNLASGVPARFSGSGSGTSYSLTISRMEAEDAATYYCQQRSTYPLTFGAGTKLELKRA
B2: Example 75: [A248S,G251T,D253K]HCPB fused via (GGGS)3 linker to N-terminus of humanised 806.077 Fd (HuVH1-HuIgG3), with HuVK4-HuCK light chain (antibody)
heavy: HHGGEHFEGEKVFRVNVEDENHINIIRELASTTQIDFWKPDSVTQIKPHSTVDFRVKAEDTVTVENVLKQNELQYKVLISNLRNVVEAQFDSRVRATGHSYEKYNKWETIEAWTQQVATENPALISRSVIGTTFEGRAIYLLKVGKAGQNKPAIFMDCGFHAREWISPAFCQWFVREAVRTYGREIQVTELLDKLDFYVLPVLNIDGYIYTWTKSRFWRKTRSTHTGSSCIGTDPNRNFDAGWCEIGASRNPCDETYCGPAAESEKETKALADFIRNKLSSIKAYLTIHSYSQMMIYPYSYAYKLGENNAELNALAKATVKELASLHGTKYTYGPGATTIYPSAGTSKDWAYDQGIRYSFTFELRDTGRYGFLLPESQIRATCEETFLAIKYVASYVLEHLYGGGSGGGSGGGSEVQLQQSGPGLVRPSQTLSLTCTASGFNIKDNYMHWVRQPPGRGLEWIGWIDPENGDTEYAPKFRGRVTMLADTSKNQFSLRLSSVTAADTAVYYCHVLIYAGYLAMDYWGQGTLVTVSSASTKGPSVFPLAPCSRSTSGGTAALGCLVKDYFPEPVTVSWNSGALTSGVHTFPAVLQSSGLYSLSSVVTVPSSSLGTQTYTCNVNHKPSNTKVDKRVELKTPLGDTTHTCPRCPEPKSCDTPPPCPRCPEPKSCDTPPPCPRCPEPKSCDTPPPCPRCPAPELLGG
light: DIQMTQSPSSLSASVGDRVTITCSASSSVTYMHWYQQKPGKAPKLWIYSTSNLASGVPSRFSGSGSGTDYTFTISSLQPEDIATYYCQQRSTYPLTFGQGTKLEIKRTVAAPSVFIFPPSDEQLKSGTASVVCLLNNFYPREAKVQWKVDNALQSGNSQESVTEQDSKDSTYSLSSTLTLSKADYEKHKVYACEVTHQGLSSPVTKSFNRGEC

What was measured:
Colon tumours = experiment: Three-stage indirect immunohistology on frozen sections, colon tumours; format: binding, human; conditions: tissue culture supernatant neat and diluted 1:10
Procedure: (§1) To assess selectivity, many human normal and tumour tissues have been screened for reactivity with the antibody 806.077, using sensitive three-stage indirect immunohistology on acetone-fixed, frozen cryostat sections.
(§2) Immunohistology was carried out on sections of human tissue obtained either at resection surgery or at post mortem. To preserve optimal morphology and antigenicity, tissues were obtained as fresh as possible, cut into small pieces (about 0.5 cm^3) and flash frozen in liquid nitrogen prior to storage at −80° C. Sections of tissue (6μ) were cut on a cryostat, mounted on polylysine coated slides (e.g. blue TECHMATE™ slides, Dako) and fixed in ice-cold acetone for 2 minutes before being wrapped in foil and stored at −80° C.
(§3) Slides were allowed to defrost at room temperature before being unwrapped from the foil immediately prior to use. […] Louis, U.S.A., Cat. No. M 9269) at 2 μg/ml in TBS, or relevant positive control such as LP34 (Dako). All subsequent incubations were carried out at room temperature for 30 minutes in a humidified chamber: all wash steps were in TBS with 2 changes. After incubation, the slides were washed and 100 μl of second antibody reagent, comprising 1/50 rabbit anti-mouse immunoglobulins conjugated to horse radish peroxidase (Dako Patts) and ⅕ normal human serum (Sigma) in TBS was added to each section.
The slides were again incubated and washed in TBS. […]

prostate tumours = experiment: Three-stage indirect immunohistology on frozen sections, prostate tumours; format: binding, human; conditions: prostate tumours (n=3), any tumour; 2 μg/ml
Procedure: as §1, §2
(§4) Slides were allowed to defrost at room temperature before being unwrapped from the foil immediately prior to use. Each section was outlined with a diamond marker, and to each section was added either 100 μl 806.077 antibody diluted to 2 μg/ml in Tris-buffered Saline (TBS), or 100 μl CEA/NCA reactive control (A5B7 antibody) at 2 μg/ml in TBS, or 100 μl MOPC isotype control (Sigma Chemical Company, St. Louis, U.S.A., Cat. No. M 9269) at 2 μg/ml in TBS, or relevant positive control such as LP34 (Dako). All subsequent incubations were carried out at room temperature for 30 minutes in a humidified chamber: all wash steps were in TBS with 2 changes. […]

NSCLC tumours = experiment: Three-stage indirect immunohistology on frozen sections, NSCLC tumours; format: binding, human; conditions: NSCLC tumours (n=6), score seen in 1/6 tumours; 2 μg/ml
Procedure: as §1, §2, §4

Lung (NCA reactivity) = experiment: Three-stage indirect immunohistology on frozen sections, normal lung; format: binding, human; design: key to degree of binding (staining score): +++ (strong)=antibody binding to >75% tumour cells; ++ (moderate)=antibody binding to 50%-75% tumour cells; + (weak)=antibody binding to 25%-50% tumour cells; +/− (minimal)=non-focal antibody binding to a small area of tumour cells; −=no staining
Procedure: as §1, §2, §3
The slides were again incubated and washed in TBS. A final detecting antibody, 100 μl swine anti-rabbit immunoglobulin conjugated to horse radish peroxidase ( 1/50 dilution with ⅕ normal human serum in TBS), was added to each section, incubated and washed thoroughly. DAB substrate (3,3′-diaminobenzidine tetrahydrochloride) was prepared using 1 DAB tablet (Sigma) with hydrogen peroxide (17 μl) in TBS (17 ml), and added dropwise through a fast filter paper (e.g. Whatman Number 4). After 3 minutes incubation the excess DAB was tapped off the slides and the slides were washed in TBS. […]

Breast tumours = experiment: Three-stage indirect immunohistology on frozen sections, breast tumours; format: binding, human; design: key: +++ (strong)=antibody binding to >75% tumour cells; ++ (moderate)=antibody binding to 50%-75% tumour cells; + (weak)=antibody binding to 25%-50% tumour cells; +/− (minimal)=non-focal antibody binding to a small area of tumour cells; −=no staining; conditions: Breast tumours (n=6), score seen in 2/6 tumours; 2 μg/ml
Procedure: as §1, §2, §4

[1] = test system: Post mortem normal tissues; experiment: Three-stage indirect immunohistology on frozen sections, post mortem normal tissues; format: binding, human; conditions: cerebellum, mid-brain, cerebrum, smooth muscle, liver, kidney, aorta, stomach, heart; 2 μg/ml
Procedure: as §1, §2, §4

[2] = test system: Spleen (granulocyte/NCA reactivity); experiment: Three-stage indirect immunohistology on frozen sections, normal spleen; format: binding, human
Procedure: as §1, §2, §4

Ovary tumours = experiment: Three-stage indirect immunohistology on frozen sections, ovary tumours; format: binding, human; conditions: Ovary tumours (n=3), any tumour; 2 μg/ml
Procedure: as §1, §2, §4

CEA = target: T1, CEA (Homo sapiens, UniProt P06731); experiment: CEA binding ELISA; conditions: media of NS0 clones
T1 sequence (P06731 35-676): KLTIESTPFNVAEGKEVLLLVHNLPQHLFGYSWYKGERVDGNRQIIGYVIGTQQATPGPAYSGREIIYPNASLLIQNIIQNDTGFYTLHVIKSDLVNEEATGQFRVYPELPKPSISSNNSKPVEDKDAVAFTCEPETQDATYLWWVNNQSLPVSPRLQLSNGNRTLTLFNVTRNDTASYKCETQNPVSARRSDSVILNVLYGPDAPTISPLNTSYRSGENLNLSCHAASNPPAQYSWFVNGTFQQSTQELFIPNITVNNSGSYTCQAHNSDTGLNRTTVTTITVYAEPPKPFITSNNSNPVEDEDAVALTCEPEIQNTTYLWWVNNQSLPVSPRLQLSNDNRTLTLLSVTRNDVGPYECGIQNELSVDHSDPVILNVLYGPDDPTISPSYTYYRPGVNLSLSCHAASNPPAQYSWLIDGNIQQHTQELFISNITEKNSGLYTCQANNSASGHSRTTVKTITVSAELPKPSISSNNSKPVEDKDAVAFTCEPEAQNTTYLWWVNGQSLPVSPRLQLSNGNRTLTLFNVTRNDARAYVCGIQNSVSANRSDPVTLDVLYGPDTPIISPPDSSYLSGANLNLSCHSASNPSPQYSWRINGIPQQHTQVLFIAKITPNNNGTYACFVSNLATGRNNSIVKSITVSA
Procedure: For the CEA ELISA each well of a 96 well immunoplate (NUNC MAXISORB™) was coated with 50 ng CEA in 50 mM carbonate/bicarbonate coating buffer pH9.6 (buffer capsules—Sigma C3041) and incubated at 4° C. overnight. The plate was washed three times with PBS+0.05% Tween 20 and then blocked 150 μl per well of 1% BSA in PBS +0.05% Tween 20 for 1 hour at room temperature. The plate was washed as previously described, 100 μl of test sample added per well and incubated at room temperature for 2 hours. Again the plate was washed three times with PBS+0.05% Tween 20, 100 μl per well of a 1/500 dilution of HRPO-labelled goat anti-human kappa antibody (Sigma A 7164) was added, in 1% BSA in PBS-Tween 20 and incubated at room temperature on a rocking platform for at least 1 hour. The plate was washed as before and then once more with PBS. To detect binding add 100 μl per well developing solution (one capsule of phosphate-citrate buffer—Sigma P4922—dissolved in 100 mls H2O to which is added one 30 mg tablet o-phenylenediamine dihydrochloride—Sigma P8412) and incubated for up to 15 minutes. The reaction was stopped by adding 75 μl 2M H2SO4, and absorbance read at 490 nm.
Media from wells containing single viable clones was taken for testing and replaced with fresh media (containing G418). […]

Row | Molecule | binding compared to A5B7 (Colon tumours) | staining (prostate tumours) | degree of binding (staining score) (NSCLC tumours) | staining of normal lung tissues (summary statement) (Lung (NCA reactivity); 4/14 normal lung tissues tested) | degree of binding (staining score) (Lung (NCA reactivity); normal lung (n=14), score seen in 10/14 tissues, 2 μg/ml) | binding compared to A5B7 (Lung (NCA reactivity); normal lung, tissue culture supernatant neat and diluted 1:10) | degree of binding (staining score) (Breast tumours) | reactivity [1] | binding compared to A5B7 ([2]; normal spleen, tissue culture supernatant neat and diluted 1:10) | staining ([2]; spleen (n=6), any of the tissues tested, 2 μg/ml) | staining (Ovary tumours) | antibody binding to CEA in an ELISA (CEA)
1 | B1 | equivalent binding | No staining | ++ (++ (moderate)=antibody binding to 50%-75% tumour cells) | minimal staining | − | much reduced binding | +/− | negative | much reduced binding | No staining | No staining | 
2 | B2 |  |  |  |  |  |  |  |  |  |  |  | positive
